Results: publication PMC4908164

How the values were obtained:
[1] = molecular target: Yeast cytochrome c peroxidase C128A with MSKT as the first four N-terminal residues (yeast) (UniProt P00431); assay: paramagnetic relaxation enhancement NMR; intermolecular PRE: 200 uM [15N,2H] CcP WT (C128A) with 200 uM unlabelled MTSL- or MTS-tagged N38C, N200C or T288C CcP; 20 mM NaPi, 100 mM NaCl, pH 6.0, 293 K; fraction bound and KD estimated from PRE-driven ensemble docking with an assumed correlation time of 45 ns
[2] = molecular target: cytochrome c peroxidase (Saccharomyces cerevisiae) (UniProt P00431); conditions: cited from earlier work

cytochrome c, sequence (P00044 2-109): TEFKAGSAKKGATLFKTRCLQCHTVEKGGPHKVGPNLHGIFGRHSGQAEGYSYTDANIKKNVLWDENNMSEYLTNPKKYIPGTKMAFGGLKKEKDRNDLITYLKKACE

What does the source list for “Yeast cytochrome c peroxidase C128A T288C tagged with MTSL (or diamagnetic MTS) at C288 (from UniProt P00431 71-361) (enzyme)”?
Kd [1]: 360 µM; fraction bound [1]: 0.4

For “Yeast cytochrome c peroxidase C128A N200C tagged with MTSL (or diamagnetic MTS) at C200 (from UniProt P00431 71-361) (enzyme)”, which Kd [1] is on record?
Its Kd is 360 µM.

And the fraction bound [1]?
Its fraction bound is 0.4.

Which Kd [2] does the source give for cytochrome c (from UniProt P00044) here?
The Kd was 5 µM.

What does the source list for “Yeast cytochrome c peroxidase C128A N38C tagged with MTSL (or diamagnetic MTS) at C38 (from UniProt P00431 71-361) (enzyme)”?
Kd [1]: 360 µM; fraction bound [1]: 0.4
